Laboratory results published in article PMC2629585, “Local Inflammation Induces Complement Crosstalk Which Amplifies the Antimicrobial Response” (PLoS Pathogens, 2009).

Target: T1, C1q (UniProt P02745 23-245; P02746 28-253; P02747 29-245)
T1 construct: complement C1q subcomponent subunit A; complement C1q subcomponent subunit B; complement C1q subcomponent subunit C; source: bought: Quidel (San Diego, CA); copies: + +
Assay: ELISA; competition; 0.8 ug CRP immobilised; 0.8 ug C1q with increasing L-ficolin or 0.8 ug L-ficolin with increasing C1q; TBS, 0.05% Tween-20, 1% HSA, pH 7.4, 2.5 mM calcium
Settings: both partners purified

T1 sequence (P02745 23-245, chain 1 of 3): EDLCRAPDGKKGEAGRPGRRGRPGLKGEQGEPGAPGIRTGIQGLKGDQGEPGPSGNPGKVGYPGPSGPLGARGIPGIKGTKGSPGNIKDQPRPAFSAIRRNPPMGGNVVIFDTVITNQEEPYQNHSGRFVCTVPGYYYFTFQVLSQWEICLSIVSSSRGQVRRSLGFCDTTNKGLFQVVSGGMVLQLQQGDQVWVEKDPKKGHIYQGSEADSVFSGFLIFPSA
T1 sequence (P02746 28-253, chain 2 of 3): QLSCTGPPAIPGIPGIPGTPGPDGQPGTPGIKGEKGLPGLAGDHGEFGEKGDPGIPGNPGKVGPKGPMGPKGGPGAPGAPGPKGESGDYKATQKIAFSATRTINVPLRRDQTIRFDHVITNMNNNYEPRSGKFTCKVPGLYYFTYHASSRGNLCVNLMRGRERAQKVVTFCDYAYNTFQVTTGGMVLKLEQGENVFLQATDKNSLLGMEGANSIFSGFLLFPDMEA
T1 sequence (P02747 29-245, chain 3 of 3): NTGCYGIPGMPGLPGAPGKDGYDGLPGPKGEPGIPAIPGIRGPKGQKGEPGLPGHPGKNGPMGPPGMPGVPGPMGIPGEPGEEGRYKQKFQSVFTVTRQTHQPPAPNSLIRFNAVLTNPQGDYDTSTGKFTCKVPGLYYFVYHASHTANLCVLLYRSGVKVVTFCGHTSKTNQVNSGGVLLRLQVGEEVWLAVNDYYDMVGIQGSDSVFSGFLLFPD

B1: C-reactive protein (CRP), human, purified (Sigma) (natural protein, UniProt P02741 19-224, looked up)
chain: QTDMSRKAFVFPKESDTSYVSLKAPLTKPLKAFTVCLHFYTELSSTRGYSIFSYATKRQDNEILIFWSKDIGYSFTVGGSEILFEVPEVTVAPVHICTSWESASGIVEFWVDGKPRVRKSLKKGYTVGAEASIILGQEQDSFGGNFEGSQSLVGDIGNVNMWDFVLSPDEINTIYLGGPFSPNVLNWRALKYEVQGEVFTKPQLWP
notes: human C-reactive protein, bought from Sigma; purity checked by SDS PAGE and mass spectrometry; source: bought: Sigma
B1: binds.
